Reference: PMC2665062 (The Journal of Biological Chemistry, 2009)

B1: Plasmodium falciparum nucleosome assembly protein PfNapL, wild type (natural protein, UniProt Q8I608 1-347, looked up)
chain: MAANEGNQPIPPEEEKEISSLLESIKIDDDKMTDLTEEQKETLKKLKLYQKEYYDYESKFEYELFLLRQKYHDLYGPIYDKRREALVGNGEAKIGTPNLPEFWLRALRNNNTVSHVIEDHDEEILVYLNDIRCDYIKKNKEKKEGFILSFYFATNPFFSNSVLTKTYHMKCVDCDNEPVLLHTEATVIDWYDNKNILKKNVVKKQHNKNSREVKTVQQTVNRDSFFHFFTSHKVPNSNVIKQLSKHEVAQLEMIIEGDYEVALTIKERIIPYAVDYYLGIIIESESNSIVSDVDSSYSSSENNSNYNSYESNNSAYNDENSNVDTNEYDDNEEEEEGAKSNEDPLTS
B2: PfNapL E260A (natural protein)
chain: MAANEGNQPIPPEEEKEISSLLESIKIDDDKMTDLTEEQKETLKKLKLYQKEYYDYESKFEYELFLLRQKYHDLYGPIYDKRREALVGNGEAKIGTPNLPEFWLRALRNNNTVSHVIEDHDEEILVYLNDIRCDYIKKNKEKKEGFILSFYFATNPFFSNSVLTKTYHMKCVDCDNEPVLLHTEATVIDWYDNKNILKKNVVKKQHNKNSREVKTVQQTVNRDSFFHFFTSHKVPNSNVIKQLSKHEVAQLEMIIEGDYAVALTIKERIIPYAVDYYLGIIIESESNSIVSDVDSSYSSSENNSNYNSYESNNSAYNDENSNVDTNEYDDNEEEEEGAKSNEDPLTS
B3: PfNapL H227A (natural protein)
chain: MAANEGNQPIPPEEEKEISSLLESIKIDDDKMTDLTEEQKETLKKLKLYQKEYYDYESKFEYELFLLRQKYHDLYGPIYDKRREALVGNGEAKIGTPNLPEFWLRALRNNNTVSHVIEDHDEEILVYLNDIRCDYIKKNKEKKEGFILSFYFATNPFFSNSVLTKTYHMKCVDCDNEPVLLHTEATVIDWYDNKNILKKNVVKKQHNKNSREVKTVQQTVNRDSFFAFFTSHKVPNSNVIKQLSKHEVAQLEMIIEGDYEVALTIKERIIPYAVDYYLGIIIESESNSIVSDVDSSYSSSENNSNYNSYESNNSAYNDENSNVDTNEYDDNEEEEEGAKSNEDPLTS
B4: PfNapL T230A (natural protein)
chain: MAANEGNQPIPPEEEKEISSLLESIKIDDDKMTDLTEEQKETLKKLKLYQKEYYDYESKFEYELFLLRQKYHDLYGPIYDKRREALVGNGEAKIGTPNLPEFWLRALRNNNTVSHVIEDHDEEILVYLNDIRCDYIKKNKEKKEGFILSFYFATNPFFSNSVLTKTYHMKCVDCDNEPVLLHTEATVIDWYDNKNILKKNVVKKQHNKNSREVKTVQQTVNRDSFFHFFASHKVPNSNVIKQLSKHEVAQLEMIIEGDYEVALTIKERIIPYAVDYYLGIIIESESNSIVSDVDSSYSSSENNSNYNSYESNNSAYNDENSNVDTNEYDDNEEEEEGAKSNEDPLTS
B5: PfNapL K266A (natural protein)
chain: MAANEGNQPIPPEEEKEISSLLESIKIDDDKMTDLTEEQKETLKKLKLYQKEYYDYESKFEYELFLLRQKYHDLYGPIYDKRREALVGNGEAKIGTPNLPEFWLRALRNNNTVSHVIEDHDEEILVYLNDIRCDYIKKNKEKKEGFILSFYFATNPFFSNSVLTKTYHMKCVDCDNEPVLLHTEATVIDWYDNKNILKKNVVKKQHNKNSREVKTVQQTVNRDSFFHFFTSHKVPNSNVIKQLSKHEVAQLEMIIEGDYEVALTIAERIIPYAVDYYLGIIIESESNSIVSDVDSSYSSSENNSNYNSYESNNSAYNDENSNVDTNEYDDNEEEEEGAKSNEDPLTS
B6: PfNapL D192A (natural protein)
chain: MAANEGNQPIPPEEEKEISSLLESIKIDDDKMTDLTEEQKETLKKLKLYQKEYYDYESKFEYELFLLRQKYHDLYGPIYDKRREALVGNGEAKIGTPNLPEFWLRALRNNNTVSHVIEDHDEEILVYLNDIRCDYIKKNKEKKEGFILSFYFATNPFFSNSVLTKTYHMKCVDCDNEPVLLHTEATVIDWYANKNILKKNVVKKQHNKNSREVKTVQQTVNRDSFFHFFTSHKVPNSNVIKQLSKHEVAQLEMIIEGDYEVALTIKERIIPYAVDYYLGIIIESESNSIVSDVDSSYSSSENNSNYNSYESNNSAYNDENSNVDTNEYDDNEEEEEGAKSNEDPLTS
B7: PfNapL Y259A (natural protein)
chain: MAANEGNQPIPPEEEKEISSLLESIKIDDDKMTDLTEEQKETLKKLKLYQKEYYDYESKFEYELFLLRQKYHDLYGPIYDKRREALVGNGEAKIGTPNLPEFWLRALRNNNTVSHVIEDHDEEILVYLNDIRCDYIKKNKEKKEGFILSFYFATNPFFSNSVLTKTYHMKCVDCDNEPVLLHTEATVIDWYDNKNILKKNVVKKQHNKNSREVKTVQQTVNRDSFFHFFTSHKVPNSNVIKQLSKHEVAQLEMIIEGDAEVALTIKERIIPYAVDYYLGIIIESESNSIVSDVDSSYSSSENNSNYNSYESNNSAYNDENSNVDTNEYDDNEEEEEGAKSNEDPLTS

How the values were obtained:
[1] = molecular target: the molecule itself; test: crystal structure
[2] = molecular target: histone H4 (calf thymus) (calf, UniProt P62803 1-103); test: ELISA

Binder	binding result [1]	binding result [2]
B1	binds	binds
B2		binds
B3		binds
B4		binds
B5		binds
B6		binds
B7		binds
